# According to patent publication US20210063414A1, “METHODS FOR PREVENTING AND/OR TREATING BONE LOSS CONDITIONS BY MODULATING IRISIN” (Dana-Farber Cancer Institute, Inc., priority 2018, published 2021):
# B1: irisin: secreted cleaved form of FNDC5; recombinant human/mouse irisin with C-terminal his tag produced in HEK293 cells (protein)
# chain: DSPSAPVNVTVRHLKANSAVVSWDVLEDEVVIGFAISQQKKDVRMLRFIQEVNTTTRSCALWDLEEDTEYIVHVQAISIQGQSPASEPVLFKTPREAEKMASKNKDEVTMKE
# modifications: left off: small tags and cut ends
# notes: secreted cleaved form of FNDC5; recombinant human/mouse irisin with C-terminal his tag produced in HEK293 cells
# Target: T1, integrin αV/β3 (Homo sapiens, UniProt P05106+P06756)
# T1 construct: expressed in transfected cells; host or cells: HEK293T
# T1 sequence (P06756 31-889 limits assumed): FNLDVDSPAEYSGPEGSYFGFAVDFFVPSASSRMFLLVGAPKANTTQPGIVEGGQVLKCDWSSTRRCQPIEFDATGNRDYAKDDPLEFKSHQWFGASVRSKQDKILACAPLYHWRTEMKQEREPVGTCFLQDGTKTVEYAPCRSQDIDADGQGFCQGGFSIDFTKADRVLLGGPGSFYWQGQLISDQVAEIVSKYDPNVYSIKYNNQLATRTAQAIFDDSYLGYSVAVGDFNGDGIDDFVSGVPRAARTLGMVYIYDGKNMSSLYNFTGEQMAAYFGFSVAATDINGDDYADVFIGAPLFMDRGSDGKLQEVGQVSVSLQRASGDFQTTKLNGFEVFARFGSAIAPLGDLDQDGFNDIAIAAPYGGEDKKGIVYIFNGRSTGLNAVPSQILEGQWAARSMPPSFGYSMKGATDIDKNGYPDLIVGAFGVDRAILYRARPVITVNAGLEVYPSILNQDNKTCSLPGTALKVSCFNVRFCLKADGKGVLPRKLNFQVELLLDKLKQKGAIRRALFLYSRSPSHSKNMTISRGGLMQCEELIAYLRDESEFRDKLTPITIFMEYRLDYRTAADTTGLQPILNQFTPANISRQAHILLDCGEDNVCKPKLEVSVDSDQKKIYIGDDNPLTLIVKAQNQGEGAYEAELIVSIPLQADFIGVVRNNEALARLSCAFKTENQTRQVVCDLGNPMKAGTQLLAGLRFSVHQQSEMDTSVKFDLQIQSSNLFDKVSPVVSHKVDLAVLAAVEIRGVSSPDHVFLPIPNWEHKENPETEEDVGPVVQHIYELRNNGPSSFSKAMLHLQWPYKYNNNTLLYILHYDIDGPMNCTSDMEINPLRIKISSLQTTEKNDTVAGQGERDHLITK
# T1 sequence (P06756 891-1048 partner limits assumed): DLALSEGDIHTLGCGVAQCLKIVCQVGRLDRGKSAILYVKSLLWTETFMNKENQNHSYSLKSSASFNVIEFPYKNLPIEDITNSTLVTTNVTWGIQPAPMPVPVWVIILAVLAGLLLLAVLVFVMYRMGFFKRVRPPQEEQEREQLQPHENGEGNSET
# T1 sequence (P05106 27-788): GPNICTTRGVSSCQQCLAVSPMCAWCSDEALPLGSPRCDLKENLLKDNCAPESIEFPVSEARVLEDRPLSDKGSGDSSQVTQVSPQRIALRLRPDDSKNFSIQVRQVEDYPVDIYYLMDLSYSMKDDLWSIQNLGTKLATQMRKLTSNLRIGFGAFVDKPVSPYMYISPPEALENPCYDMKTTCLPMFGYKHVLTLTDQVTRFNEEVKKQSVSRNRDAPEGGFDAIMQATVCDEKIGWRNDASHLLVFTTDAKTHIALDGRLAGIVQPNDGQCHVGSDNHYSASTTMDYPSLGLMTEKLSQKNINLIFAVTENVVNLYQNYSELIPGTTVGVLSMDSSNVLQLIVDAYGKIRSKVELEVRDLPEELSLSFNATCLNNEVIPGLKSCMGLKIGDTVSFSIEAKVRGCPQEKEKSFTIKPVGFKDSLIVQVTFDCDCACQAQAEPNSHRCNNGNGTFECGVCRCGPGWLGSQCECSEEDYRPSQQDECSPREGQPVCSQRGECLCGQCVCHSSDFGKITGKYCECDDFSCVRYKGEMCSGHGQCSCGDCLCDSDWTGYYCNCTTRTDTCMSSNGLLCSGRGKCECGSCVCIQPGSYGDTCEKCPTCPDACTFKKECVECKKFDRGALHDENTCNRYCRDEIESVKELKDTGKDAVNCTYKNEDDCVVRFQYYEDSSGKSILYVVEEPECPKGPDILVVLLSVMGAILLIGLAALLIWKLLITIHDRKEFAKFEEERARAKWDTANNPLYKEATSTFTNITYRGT
# Test: FAK phosphorylation in HEK293T cells with forced expression of integrin αV/β3
# Format: cell-based
# Conditions: HEK293T, forced expression of integrin αV/β3, irisin 5 minutes
# Description: 100 nM irisin was incubated with 5 nM indicated his-tag integrins followed by immunoprecipitation using Ni-NTA agaroses. Precipitated integrins and co-precipitated irisin were analyzed by immunoblot analysis. […] HEK293T cells were seeded and incubated until 50% cell density. The cells were transfected with 0.1 μg plasmids of indicated integrins. After 48 hours, the cells were incubated with Freestyle293 medium for 3 hours and were treated with indicated concentration of irisin for 5 minutes. Cells were lysed to detect the indicated protein level using immunoblot analysis. […] MLO-Y4 cells were treated as described in FIG. 2D with addition of pretreatment of indicated antagonistic antibodies for 10 minutes. Cells were lysed to detect the indicated protein level using immunoblot analysis. […] Sclerostin mRNA level was analyzed by qRT-PCR. […]
# 100 nM irisin was incubated with 5 nM indicated his-tag integrins followed by immunoprecipitation using Ni-NTA agaroses. Precipitated integrins and co-precipitated irisin were analyzed by immunoblot analysis. […] Cells were treated and analyzed as FIG. 14B except using plasmids encoding integrin α5/β1 or integrin α11/β1 (FIG. 15C) integrin αV/β1(FIG. 15D). […]
# Cells were harvested in RIPA buffer containing protease-inhibitor cocktail and phosphataseinhibitor cocktail. […] Protein levels were analyzed via western blot using indicated antibody. […]
molecule,measurement,value
B1,phosphorylation of FAK upon irisin treatment,not
